Reference: patent publication US20180327473A1 (published 2018)
Positions count from the first letter of the chain named.

B1: mTCR-1 (TCR, V domains shown)
Valpha: QQKVQQSPESLIVPEGGMASLNCTSSDRNVDYFWWYRQHSGKSPKMLMSIFSNGEKEEGRFTVHLNKASLHTSLHIRDSQPSDSALYLCAASITNAYKVIFGKGTHLHVLP
Vbeta: EAAVTQSPRNKVTVTGGNVTLSCRQTNSHNYMYWYRQDTGHGLRLIHYSYGAGNLQIGDVPDGYKATRTTQEDFFLLLELASPSQTSLYFCASSDAGTSQNTLYFGAGTRLSVL
B2: mTCR-38 (TCR, V domains shown)
Valpha: B1 Valpha with S92T, I93L, N95G, A96G, I100V, K103S, H106R, H108L, L110S
Vbeta: B1 Vbeta
B3: mTCR-6 (TCR, V domains shown)
Valpha: B1 Valpha with I93M, T94I
Vbeta: B1 Vbeta with T98V
B4: mTCR-8 (TCR, V domains shown)
Valpha: B1 Valpha with T94S, N95G, A96G, I100V, K103S, H106R, H108L, L110S
Vbeta: B1 Vbeta
B5: mTCR-2 (TCR, V domains shown)
Valpha: B1 Valpha with I93T, T94V
Vbeta: B1 Vbeta
B6: mTCR-11 (TCR, V domains shown)
Valpha: B1 Valpha with I93K, N95G, A96G, I100V, K103S, H106R, H108L, L110S
Vbeta: B1 Vbeta
B7: mTCR-17 (TCR, V domains shown)
Valpha: B1 Valpha with I93M, N95G, A96G, I100V, K103S, H106R, H108L, L110S
Vbeta: B1 Vbeta
B8: mTCR-10 (TCR, V domains shown)
Valpha: B1 Valpha with T94V, N95G, A96G, I100V, K103S, H106R, H108L, L110S
Vbeta: B1 Vbeta with A96H, S99G
B9: mTCR-3 (TCR, V domains shown)
Valpha: B1 Valpha with I93M, T94A, N95G, A96G, I100V, K103S, H106R, H108L, L110S
Vbeta: B1 Vbeta with S99A

Target: T1, human alpha fetoprotein (hAFP158) peptide on HLA-A2 (human)
T1 peptide: FMNKFIYEI
Test: multimer staining

Binding result, recognises:
B1
B2
B3
B4
B5
B6
B7
B8
B9
